Measurements taken from patent US20120263651.
Read-outs that look alike come from different tables or passages of the source.

Molecular target: endogenous RelA in A549 cells (Homo sapiens) (UniProt Q04206)
Settings: two-step ChIP

endogenous RelA in A549 cells (Homo sapiens), sequence (Q04206 whole entry): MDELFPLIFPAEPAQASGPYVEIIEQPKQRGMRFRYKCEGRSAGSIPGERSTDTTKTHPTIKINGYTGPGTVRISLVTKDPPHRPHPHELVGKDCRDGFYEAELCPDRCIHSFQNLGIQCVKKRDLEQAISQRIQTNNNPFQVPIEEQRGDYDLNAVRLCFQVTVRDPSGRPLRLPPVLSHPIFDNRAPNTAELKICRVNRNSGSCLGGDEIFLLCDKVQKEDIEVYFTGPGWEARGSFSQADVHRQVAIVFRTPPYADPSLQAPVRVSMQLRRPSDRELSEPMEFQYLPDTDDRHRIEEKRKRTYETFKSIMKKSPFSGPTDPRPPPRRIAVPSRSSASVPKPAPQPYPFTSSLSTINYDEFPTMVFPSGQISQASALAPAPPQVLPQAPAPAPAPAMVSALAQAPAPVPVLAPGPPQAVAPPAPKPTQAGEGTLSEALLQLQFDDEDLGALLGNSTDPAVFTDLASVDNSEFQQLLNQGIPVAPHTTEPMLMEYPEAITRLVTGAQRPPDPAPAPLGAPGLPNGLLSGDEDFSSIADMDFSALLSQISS

**Q.** Which binding signal (fold increase with TNF) (reduced by transfected P028F4 (4 uM)) does the source give for Gro-beta promoter chromatin here?
**A.** 3.5

**Q.** With TNFAIP3/A20 promoter chromatin as the substance, how does the binding signal (fold increase with TNF) (reduced to less than 2-fold by P028F4) read?
**A.** 3.5
